Test results from patent US8715697B2, “Genes associated with Leishmania parasite virulence” (priority 2001, dated 2014).

Legend:
mononuclear cells = assay: In vitro proliferation of mononuclear cells from individuals of a ZCL region, tritiated thymidine incorporation; assay type: cell-based, human; details: 5 μg/ml LmPDI, 5 days of culture, immune individuals (positive SLA test); FIG. 8
Method: The lymphomonocytary cells were recovered, washed by 3 successive centrifuge runs with RPMI-PS/Glu medium (30 ml then twice 10 ml) then counted and incubated at a concentration of 10^6 cells/ml of medium in the presence or absence of a concentration of 5 μg/ml of LmPDI. After 5 days of culture, lymphocyte stimulation was estimated by incorporating tritiated thymidine. The result is expressed in CPM.
L. major LmPDI, because of its high expression during the infectious stage of the parasite, could be a target for a cellular immune response. In order to verify the pertinence of this hypothesis, the capacity of LmPDI to induce a cellular immune response was evaluated by means of experiments on the proliferation of mononuclear cells obtained from individuals having active lesions or ZCL antecedents.
This study was carried out in 37 individuals living at El Guettar (southern Tunisia) for whom the results of the cellular proliferation test against total antigens from the parasite (SLA, a test indicating prior contact with the parasite) was available. These individuals were divided up as follows:
Mononuclear cells comprising lymphocytes and monocytes were separated from peripheral blood by centrifuging on a Ficoll/Hypaque gradient (Pharmacia, Uppsala, Sweden).

mononuclear cells (PBMC) = assay: Cytokines (IFN-β, IL-4) in PBMC culture supernatants, ELISA; assay type: cell-based, human; details: 5 μg/ml LmPDI, 48 hours, small sample of individuals
Method: Cytokines (IFN-β, IL-4) in PBMC culture supernatants were induced by incubating mononuclear cells for 48 hours with the same concentration of LmPDI and assaying by means of an ELISA test using human anti-IL-4 and anti-IFN-β monoclonal antibodies (Pharmingen, San Diego, Calif.).

scrambled RNase A = assay: Reactivation of scrambled RNase A in the presence of recombinant LmPDI protein (PDI activity); assay type: biochemical; details: 1.4 μM recombinant LmPDI, 30 minutes at 25° C., compared with bovine PDI; FIG. 4
Method: Scrambled RNase A (8 μM) was incubated in a buffer containing 4.5 mM (cCMP), 1 mM glutathione GSH, 0.2 mM glutathione disulfide GSSH, 2 mM EDTA and 100 mM Tris-HCl pH 8 in the presence of bovine serum albumin (BSA) (1.4 μM) as a negative control, bovine protein disulfide-isomerase (1.4 μM) as the positive control, or recombinant LmPDI (1.4 μM) for 30 minutes at 25° C. RNase A reactivation was determined by measuring the RNase A activity at 296 nm every 5 minutes for 30 minutes (Lyles and Gilbert, 1991).
20 mg of purified ribonuclease (RNase A) was scrambled at ambient temperature for 18 hours in a buffer containing 0.15 M of DTT, 6 M of guanidine-HCl and 0.1 M of Tris-HCl at a pH of 8.6 before being purified on a Sephadex G-25 column equilibrated in 0.01 M HCl. The concentration of scrambled RNase A fractions was determined using an extinction coefficient of 9200 M^−1 cm^−1 at 275 nm. Thu fractions were stored at −80° C. for two weeks.
Scrambled RNase A (8 μM) was incubated in a buffer containing 4.5 mM cCMP, 1 mM glutathione GSH, 0.2 mM glutathione disulfide GSSH, 2 mM EDTA and 100 mM of Tris-HCl pH 8 in the presence of bovine serum albumin (BSA) (1.4 μM) as a negative control, bovine protein disulfide-isomerase (1.4 μM) as a positive control, or recombinant LmPDI (1.4 μM) for 30 minutes at 25° C. […]

B1: LmPDI: recombinant protein disulfide isomerase of Leishmania major, SEQ ID No: 3, produced in E. coli; vaccine candidate (protein)
chain: MAEVQVATKDNFDKVVIGDLTLVKFYAPWCGHCKTLAPEFVKAADMLAGIATLAEVDCTKEESLAEKYEIKGFPTLYIFRNGEKVKIYDGPRTAAGIASYMKAHVGPSMKAISTAEELEELKKETFPVCVVKTASTDSEMASMITKVADSLRSQMNFVLVTDAAISPNDAMESVTVYRKNAEREAYTGATPMTAESVKSFLTSAVLDYFGELGQESFQKYMEANKDKPLGWVFIDKNTDSALKGSLVAVAEKYRSQVLLTYIDGDQYRPVSRQLGIPEDAKFPAFVVDFERRHHVMGTDTPVTSESVAAFVEKYVKGETKQTVMSDAIPAKETVNGLTTVVGQTFAKYTDGTQNVMLLFYAPWCGHCKKLHPVYDKVAKSFESENVIIAKMDATTNDFDREKFEVSGFPTIYFIPAGKPPIVYEGGRTADEIQVFVKSHLTASAAPSGGPSGNSEEEDLLEHHHHHH
modifications: His6 tag
notes: vaccine candidate
proliferation of mononuclear cells (mononuclear cells): significant proliferation | IFN-β in the supernatant from stimulated cells (mononuclear cells (PBMC)): significant amounts | IL-4 in the supernatant from stimulated cells (mononuclear cells (PBMC)): absence | restoration of RNase A activity (scrambled RNase A): capable of restoring RNase A activity
